In patent US20220298229A1 (ICHOR BIOLOGICS, published 2022):

Legend:
[1] = biological target: T1, ANDV glycoprotein (GPC), glycoproteins Gn and Gc of hantavirus strain Chile-9717869 (Andes Virus (hantavirus strain …, UniProt Q9E006 19-1138)); test: cell-based or functional assay
T1 sequence: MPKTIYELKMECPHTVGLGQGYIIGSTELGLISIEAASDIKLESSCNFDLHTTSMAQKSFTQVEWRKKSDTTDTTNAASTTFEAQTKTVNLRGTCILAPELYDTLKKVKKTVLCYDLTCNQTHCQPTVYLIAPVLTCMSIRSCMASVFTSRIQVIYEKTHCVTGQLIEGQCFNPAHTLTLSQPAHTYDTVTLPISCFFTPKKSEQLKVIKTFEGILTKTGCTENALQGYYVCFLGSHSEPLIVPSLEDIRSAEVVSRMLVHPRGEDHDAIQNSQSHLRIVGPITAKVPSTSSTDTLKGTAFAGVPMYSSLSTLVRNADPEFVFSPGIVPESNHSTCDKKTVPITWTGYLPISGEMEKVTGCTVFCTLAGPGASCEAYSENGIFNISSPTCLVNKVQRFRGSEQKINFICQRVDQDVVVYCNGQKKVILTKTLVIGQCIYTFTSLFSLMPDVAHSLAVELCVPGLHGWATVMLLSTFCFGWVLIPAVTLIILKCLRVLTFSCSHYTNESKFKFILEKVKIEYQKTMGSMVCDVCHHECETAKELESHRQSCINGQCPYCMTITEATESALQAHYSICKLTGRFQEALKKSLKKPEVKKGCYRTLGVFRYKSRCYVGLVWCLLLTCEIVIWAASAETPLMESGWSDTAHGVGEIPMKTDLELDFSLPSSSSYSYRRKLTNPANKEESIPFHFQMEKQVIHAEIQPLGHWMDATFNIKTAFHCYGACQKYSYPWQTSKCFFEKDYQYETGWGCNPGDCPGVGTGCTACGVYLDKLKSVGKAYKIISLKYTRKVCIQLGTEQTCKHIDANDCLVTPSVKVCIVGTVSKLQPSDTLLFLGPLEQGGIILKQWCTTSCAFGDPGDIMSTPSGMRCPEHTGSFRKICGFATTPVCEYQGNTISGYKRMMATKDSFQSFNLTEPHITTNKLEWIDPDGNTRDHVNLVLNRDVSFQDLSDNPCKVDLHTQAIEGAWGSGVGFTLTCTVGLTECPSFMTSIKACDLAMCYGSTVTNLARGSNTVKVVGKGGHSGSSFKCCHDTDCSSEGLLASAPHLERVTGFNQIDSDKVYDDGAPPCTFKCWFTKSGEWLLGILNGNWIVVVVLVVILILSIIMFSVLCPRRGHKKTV

[2] = biological target: T1, ANDV glycoprotein (GPC), glycoproteins …

B1: monoclonal antibody MIB22 (antibody, V domains shown)
VH: EVQLVQSGAELKKPGSSVKVSCKASGGTFVGYGVSWVRQVPGHGPEWMGGFSPISNTANYAERFQGRVTMIVDGSTSTAYMELRSLRSEDTAIYYCARSCDFWNAYYNNWFDPWGQGTLVTVSS
VL: AQSALTQPASVSGSPGQSITISCTGTSSDFADYNSVSWYQQHPGKAPKLLIFDVNDRPSGVSHRFSGSKSGNTASLTISGLQAEDESDYYCTSYTICNSYVFGTGTKVTVLG
notes: also called MIB22 IgG; first antibody
[1]
  neutralization capacity relative to JL16: 31 fold
  potency of ANDV neutralization relative to polyclonal IgG from P10: 67 fold
[2]
  EC50: 3.38 µg/mL
